Patent publication US20110038881A1, “PROGNOSTIC ASSAY FOR DETERMINING T CELL RESPONSE TO HLA ANTIGENS AND USE THEREOF IN FIELD OF TISSUE TRANSPLANTATION” (priority 2007, published 2011)

Legend:
Experiment in all cases: competition binding
Conditions in all cases: modification not given
[1] = target: HLA-DRB1*0101 (human)
[2] = target: HLA-DRB1*0301 (human)
[3] = target: HLA-DRB1*0401 (human)
[4] = target: HLA-DRB1*1101 (human)
[5] = target: HLA-DRB1*1301 (human)
[6] = target: HLA-DRB1*1501 (human)
[7] = target: HLA-DRB3*0101 (human)
[8] = target: HLA-DRB1*0701 (human)

| IC50 [1] [nM] | IC50 [2] [µM] | IC50 [3] [µM] | IC50 [4] [nM] | IC50 [5] [µM] | IC50 [6] [µM] | IC50 [7] [nM] | IC50 [8] [µM] | Binder |
| --- | --- | --- | --- | --- | --- | --- | --- | --- |
| 4 | > 100 | 0.099 | 340 | > 100 | 0.474 | 45 | – | GTFQKWAAVVVPSGQ [p45*] |
| 8000 | > 100 | > 100 | > 100000 | > 100 | > 100 | – | 53.7 | THMTHHAVSDHEATL [p38] |
| 598 | > 100 | > 100 | 251 | 8.06 | 0.245 | – | > 100 | VEWLRRYLENGKETL [p35*] |
| 4470 | > 100 | 70.4 | 8750 | > 100 | > 100 | – | 2.16 | TELVETRPAGDGTFQ [p44] |
| 2240 | 0.98 | > 100 | 68900 | 7.48 | > 100 | 1530 | 42.2 | AAVVVPSGQEQRYTC [p47] |
| 26 | – | > 100 | > 100000 | 1.37 | 0.283 | – | 0.179 | IPIVGIIAGLVLFGA [p53*] |
| 629 | > 100 | > 100 | 3340 | 8.06 | 0.026 | – | > 100 | AHVAEQLRAYLEGTC [p31] |
| 63 | 1.84 | 1.73 | 424 | > 100 | 0.267 | 1100 | 0.149 | EQLRAYLEGTCVEWL [p32] |
| > 100000 | > 100 | > 100 | 245 | 5 | 22.2 | 58100 | > 100 | TCVEWLRRYLENGKE [p34*] |
| 40000 | > 100 | > 100 | > 100000 | 3.84 | > 100 | 33 | > 100 | ADMAAQTTKHKWEAA [p29] |
| 50 | > 100 | 0.917 | 2340 | > 100 | > 100 | – | > 100 | LSFYPAEITLTWQRD [p41] |
| 2000 | > 100 | 60 | > 100000 | > 100 | > 100 | 27600 | 3.13 | ETLQRTDAPKTHMTH [p37] |
| 704 | > 100 | 28 | 738 | 11.6 | 69 | 4850 | > 100 | RRYLENGKETLQRTD [p36] |
